From patent US20230167158A1

Target: human CD3 on activated lymphocytes (human)
Assay: cell-based or functional assay

OKT3-CD8a-VSVG
GFP positive cells after transduction of activated lymphocytes (GFP vector): > 50%

OKT3-VSVG
GFP positive cells after transduction of activated lymphocytes (GFP vector): 7%
